From paper PMC3901395, “Multivalent interactions of the SUMO-interaction motifs in RING finger protein 4 determine the specificity for chains of the SUMO” (Biochemical Journal, 2013)

Experiments:
Assay in all cases: ITC; VP-ITC or ITC200; 25°C; ITC buffer (50 mM Tris/HCl, pH 7.5, 150 mM NaCl, 2 mM DTT, 5% glycerol); SUMOs titrated into a solution of the RNF4 construct or peptide (legends of Figures 1B, 2B); 20–30 injections up to 2–3-fold molar excess; values averaged from two to six titrations
[1] = biological target: RNF4 1–125 (RNF4-SIM domain, wt) (human) (UniProt P78317)
Chain of RNF4 1–125 (RNF4-SIM domain, wt) (human) (P78317 1-125): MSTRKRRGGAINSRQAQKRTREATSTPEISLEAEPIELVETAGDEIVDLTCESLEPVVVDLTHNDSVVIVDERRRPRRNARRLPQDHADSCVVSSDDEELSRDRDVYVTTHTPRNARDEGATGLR

[2] = biological target: RNF4-SIM2/3 peptide (human)
Chain of RNF4-SIM2/3 peptide (human) (P78317 43-65): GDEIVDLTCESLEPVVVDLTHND

[3] = biological target: synthetic tandem PIAS1 SIM peptide

Kd [1] [µM] | Kd [2] [µM] | Kd [3] [µM] | Substance
4.3 | – | – | linear tetra-SUMO1 (4×SUMO1-ΔN15) (from UniProt P63165 16-101; P63165 16-101; P63165 16-101; P63165 16-101)
17 | – | – | linear di-SUMO1 (2×SUMO1-ΔN15) (from UniProt P63165 16-101; P63165 16-101)
14 | 8.5 | 3.8 | linear di-SUMO2 (2×SUMO2-ΔN11) (from UniProt P61956 12-95; P61956 12-95)
1.6 | – | – | linear tetra-SUMO2 (4×SUMO2-ΔN11) (from UniProt P61956 12-95; P61956 12-95; P61956 12-95; P61956 12-95)
